These results are taken from publication PMC9478400, “Identification and characterization of a novel hydroxylamine oxidase, DnfA, that catalyzes the oxidation of hydroxylamine to N2” (The Journal of Biological Chemistry, 2022).

Series [1] deals with T1, DnfA (Alcaligenes ammonioxydans, UniProt A0ABX8SXK4).
T1 construct: gene FE795_13025; full-length, 6xHis-tagged, pET-21a, E. coli BL21(DE3); dimer by gel filtration; diiron (residues Glu88, Glu123, His126, Glu182, His209, Glu213, His216)
T1 sequence (A0ABX8SXK4 1-317): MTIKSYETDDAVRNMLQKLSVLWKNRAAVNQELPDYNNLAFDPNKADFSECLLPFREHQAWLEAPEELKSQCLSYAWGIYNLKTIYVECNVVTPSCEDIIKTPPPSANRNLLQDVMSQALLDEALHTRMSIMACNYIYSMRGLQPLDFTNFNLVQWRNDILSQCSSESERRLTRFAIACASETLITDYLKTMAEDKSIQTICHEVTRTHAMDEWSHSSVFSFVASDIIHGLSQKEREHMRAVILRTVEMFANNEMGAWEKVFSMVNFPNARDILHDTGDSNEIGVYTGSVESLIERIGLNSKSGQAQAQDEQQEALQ
Description: isothermal titration calorimetry. Type of series: binding. To be noted: 25 °C; hydroxylamine injected into enzyme.

In series [2] the target is T1, DnfA. Description: differential scanning fluorimetry. It counts as binding. The note with it: 10 mM compound, 100 μg/ml DnfA, 20 mM Tris-HCl pH 8.0, SYPRO Orange.
In series [3] the target is DnfA hydroxylamine oxidase of Alcaligenes ammonioxydans HO-1 (Alcaligenes ammonioxydans HO-1). Description: SEC; gel filtration of native DnfA on Superdex 200 Increase 10/300 GL; mobile phase 20 mM Tris-HCl, 150 mM NaCl, pH 8.0; UV absorbance at 280 nm.
Substrate in series [4]: NO
Description: Michaelis-Menten, nonlinear regression, N2-forming hydroxylamine oxidation. To be noted: 10 μM DnfA, 100 μM FAD, 1 mM NADH, atmospheric O2, 15 to 400 μM NH2OH. It counts as biochemical, Alcaligenes ammonioxydans. From the text: Michaelis-Menten, nonlinear regression, N2-forming hydroxylamine oxidation on DnfA | the Michaelis–Menten constant (Km) for hydroxylamine

As for `NO` [hydroxylamine], the isothermal titration calorimetry result on DnfA [1] is given as “none of them interacted with ammonia, but DnfA bound to hydroxylamine”. Also, at DnfA [2], the differential scanning fluorimetry result is on record as “DSF test demonstrated also that DnfA bound hydroxylamine”.

In turn, “DnfA hydroxylamine oxidase of Alcaligenes ammonioxydans HO-1 (enzyme)” showed a stoichiometry N in series [3] of 2.

B1: DnfA (Alcaligenes ammonioxydans) (protein)
chain: T1 sequence (A0ABX8SXK4 1-317)
notes: full-length, 6xHis-tagged, pET-21a, E. coli BL21(DE3); dimer by gel filtration; diiron (residues Glu88, Glu123, His126, Glu182, His209, Glu213, His216)
In the case of B1, in series [4], the Km turned out to be 92.9 ± 3.0 µM and the catalytic constant (kcat) was 0.028 ± 0.001 s⁻¹.
